Experimental findings from patent publication US20260078195A1 are described below.

In assay [1] the target is human BCMA antigen (Cat #:BCA-H522y, ACRO) (human) (UniProt Q02223). Kind of assay: SPR (BIAcore 8K), antibody captured by anti-human Fc on CM5 chip, antigen as analyte. A general note: In SPR one partner is held on a chip, and binding of the other changes the refractive index at the surface.
For assay [2], the target named is human CD3D&E protein (Cat #: CT038-H2508H, Sino biological) (human) (UniProt P04234). Described as above.
Chain of human CD3D&E protein (Cat #: CT038-H2508H, Sino biological) (human) (P04234 22-105, chain 1 of 2): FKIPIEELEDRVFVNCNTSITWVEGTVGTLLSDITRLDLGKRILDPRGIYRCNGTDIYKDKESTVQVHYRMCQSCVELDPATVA
Chain of human CD3D&E protein (Cat #: CT038-H2508H, Sino biological) (human) (P07766 23-126, chain 2 of 2, further chain): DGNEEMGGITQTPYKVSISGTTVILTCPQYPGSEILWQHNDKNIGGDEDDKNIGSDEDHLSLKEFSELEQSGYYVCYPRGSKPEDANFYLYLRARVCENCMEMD
In assay [3] the target is human CD3 complex on Jurkat cells (human) (UniProt P07766). Kind of assay: FACS on Jurkat cells, PE goat anti-human IgG (H+L) secondary antibody, MFI.
Chain of human CD3 complex on Jurkat cells (human) (P07766 23-207, chain 1 of 4): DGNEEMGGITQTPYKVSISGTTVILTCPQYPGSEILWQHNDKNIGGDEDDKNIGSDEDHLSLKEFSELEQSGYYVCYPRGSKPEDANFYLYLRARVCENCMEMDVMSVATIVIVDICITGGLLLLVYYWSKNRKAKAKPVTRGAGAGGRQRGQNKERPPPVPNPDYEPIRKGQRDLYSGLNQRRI
Chain of human CD3 complex on Jurkat cells (human) (P04234 22-171, chain 2 of 4, further chain): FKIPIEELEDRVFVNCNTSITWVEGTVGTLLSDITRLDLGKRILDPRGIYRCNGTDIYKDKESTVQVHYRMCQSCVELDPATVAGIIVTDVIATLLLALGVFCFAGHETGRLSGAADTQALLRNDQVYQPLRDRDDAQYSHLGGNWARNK
Chain of human CD3 complex on Jurkat cells (human) (P09693 23-182, chain 3 of 4, further chain): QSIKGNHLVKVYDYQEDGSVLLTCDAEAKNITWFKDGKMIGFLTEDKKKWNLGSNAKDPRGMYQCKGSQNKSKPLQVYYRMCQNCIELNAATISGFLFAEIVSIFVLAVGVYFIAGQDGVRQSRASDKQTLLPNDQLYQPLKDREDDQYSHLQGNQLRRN
Chain of human CD3 complex on Jurkat cells (human) (P20963 22-164, chain 4 of 4, further chain): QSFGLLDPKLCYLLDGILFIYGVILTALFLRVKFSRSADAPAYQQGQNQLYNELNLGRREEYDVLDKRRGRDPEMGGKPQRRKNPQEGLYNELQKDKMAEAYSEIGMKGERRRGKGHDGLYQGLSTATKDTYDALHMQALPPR
Assay [4] has as its target human BCMA expressed on HEK293A cells (human) (UniProt Q02223). Kind of assay: FACS on HEK293A/human BCMA cells, PE goat anti-human IgG (H+L) secondary antibody, MFI.
The target of assay [5] is mouse BCMA expressed on HEK293A cells (mouse) (UniProt O88472). Kind of assay: FACS on HEK293A/mouse BCMA cells, PE goat anti-human IgG (H+L) secondary antibody, MFI.
Chain of mouse BCMA expressed on HEK293A cells (mouse) (O88472 whole entry): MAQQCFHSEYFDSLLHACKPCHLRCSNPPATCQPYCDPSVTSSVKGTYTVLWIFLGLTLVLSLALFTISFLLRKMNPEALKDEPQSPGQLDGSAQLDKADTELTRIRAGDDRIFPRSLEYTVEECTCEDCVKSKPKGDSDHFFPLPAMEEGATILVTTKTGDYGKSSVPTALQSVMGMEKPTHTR
Assay [6] has as its target monkey BCMA expressed on HEK293A cells (monkey). Kind of assay: FACS on HEK293A/monkey BCMA cells, PE goat anti-human IgG (H+L) secondary antibody, MFI.
For assay [7], the target named is human GPRC5D antigen (Cat #:HM05P, Kactus Biosystems) (human) (UniProt Q9NZD1). Nature of the assay: SPR (BIAcore 8K), antibody captured by anti-human Fc on CM5 chip, antigen as analyte.
Chain of human GPRC5D antigen (Cat #:HM05P, Kactus Biosystems) (human) (Q9NZD1 whole entry): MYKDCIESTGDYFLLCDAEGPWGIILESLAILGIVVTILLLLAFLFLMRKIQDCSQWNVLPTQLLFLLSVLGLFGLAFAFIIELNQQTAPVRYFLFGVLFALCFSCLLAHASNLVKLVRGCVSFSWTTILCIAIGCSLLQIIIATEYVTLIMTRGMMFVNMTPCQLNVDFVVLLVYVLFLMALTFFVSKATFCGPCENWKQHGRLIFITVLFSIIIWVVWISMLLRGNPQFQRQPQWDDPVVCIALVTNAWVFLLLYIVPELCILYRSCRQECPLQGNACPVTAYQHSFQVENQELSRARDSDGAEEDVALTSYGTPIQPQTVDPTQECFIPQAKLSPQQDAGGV
Assay [8] addresses human GPRC5D expressed on HEK293T cells (human) (UniProt Q9NZD1). Nature of the assay: FACS on HEK293T/human GPRC5D cells, PE goat anti-human IgG (H+L) secondary antibody, MFI.

Chain of human BCMA antigen (Cat #:BCA-H522y, ACRO) (human) (Q02223 1-54 limits assumed): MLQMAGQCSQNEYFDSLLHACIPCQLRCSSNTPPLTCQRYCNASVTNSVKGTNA
Chain of monkey BCMA expressed on HEK293A cells (monkey) (Q02223 other isoform, or with tags, fused parts or gaps): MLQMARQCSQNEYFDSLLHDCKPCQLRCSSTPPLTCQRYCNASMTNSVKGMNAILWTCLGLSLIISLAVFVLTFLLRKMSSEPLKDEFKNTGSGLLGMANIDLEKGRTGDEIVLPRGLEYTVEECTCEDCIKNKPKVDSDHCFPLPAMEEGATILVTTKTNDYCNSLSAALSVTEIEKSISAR
Chain of human GPRC5D expressed on HEK293T cells (human) (Q9NZD1 whole entry): as the sequence (Q9NZD1 whole entry) above
Chain of human BCMA expressed on HEK293A cells (human) (Q02223 whole entry): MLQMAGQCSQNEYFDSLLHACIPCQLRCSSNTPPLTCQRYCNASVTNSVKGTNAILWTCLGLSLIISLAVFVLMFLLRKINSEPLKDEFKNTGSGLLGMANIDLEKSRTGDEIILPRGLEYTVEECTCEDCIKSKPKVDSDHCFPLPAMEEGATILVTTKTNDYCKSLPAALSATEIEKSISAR

As to “EM801 (bi-specific BCMA×CD3 antibody) (bispecific antibody)”, the results for the Kd in assay [1] and in assay [2] were 0.996 nM and 41 nM, respectively. Also, the results for the koff in assay [1] and in assay [2] were 0.00227 s⁻¹ and 0.00757 s⁻¹, respectively. The figures for the kon in assay [1] and in assay [2] were 2.28e+06 M⁻¹ s⁻¹ and 185000 M⁻¹ s⁻¹, respectively. The EC50 (read off the curve) (in general, the concentration that produces a half-maximal response) was 0.7 µg/mL in assay [3], 0.07 µg/mL in assay [4], 0.2 µg/mL in assay [5] and 0.1 µg/mL in assay [6].
For “JNJ-64407564 (bi-specific GPRC5D×CD3 antibody) (bispecific antibody)”, the Kd (usually a measure of binding affinity in units of concentration) in assay [7] was 4.21 nM. Besides, in assay [8], the EC50 (read off the curve) worked out at 0.1 µg/mL.
